Measured values taken from the nanobody polyreactivity screen of Harvey et al. (2022).

Assay: yeast display, Sf9 membrane polyspecificity reagent, FACS + sequencing; frameworks hold sequencing errors
Method in brief: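 Using colony PCR, genes from sorted yeast display clones were amplified, then sequenced on MiSeq at 2 × 250 and filtered by CDR length. The clones had been stained with 10% biotinylated, detergent-solubilized Sf9 membrane reagent for 1 hour at 4 °C and sorted by FACS into low and high (top ~1%) gates on anti-HA and streptavidin fluorescence. Polyreactivity labels come from the gate of origin.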

Row | Sequence | polyreactivity (PSR sort gate)
1 | QVQLVESGGGLVQAGGSLRLSCAASGSTFGYYAMGWYRQAPGKERELVAAISWSGGSTYYADSVKGRFTISRDNAKNTVYLQMNSLKPEDTAVYYCNKVRGKTYYGEGDYWGQGTQVTVSS | high polyreactivity
2 | QVQLVESGGGLVQAGGSLRLSCAASGSTFGYYAMGWYRQAPGKERELVAAITSGASTNYADSVKGRFTISRDNAKNTVYLQMNSLKPEDTAVYYCAAANLQYGKDVQGDYWGQGTQVTVSS | low polyreactivity
3 | QVQLVESGGGLVQAGGSLRLSCAASGSTFGYYAMGWYRQAPGKERELVAAITSNDGSTNYADSVKGRFTISRDNAKKTVYLQMNSLKPEDTAVYYCNARSFVAVISSFDYWGQGTQVTVSS | low polyreactivity
4 | QVQLVESGGGLVQAGGSLRLSCAASGSTFGYYAMGWYRQAPGKERELVAAITWGGASTDYADSVKGRFTISRDNAKNTVYLQMNSLKPEDTAVYYCAKDNWDNPRPTSEMDYWGQGTQVTVSS | low polyreactivity
5 | QVQLVESGGGLVQAGGSLRLSCAASGSTFGYYAMGWYRQAPGKERELVAAITYSGGGTYYADSVKGRFTISRDNAKNTVYLQMNSLKPEDTAVYYCAATIPYSLYGYDYWGQGTQVTVSS | low polyreactivity
6 | QVQLVESGGGLVQAGGSLRLSCAASGSTFGYYAMGWYRQAPGKERELVASINWRGDSTYYADSVKGRFTISRDNAKNTVYLQMNSLKPEDTAVYYCNKAYRRRYVQGEYWGQGTQVSVSS | high polyreactivity
7 | QVQLVESGGGLVQAGGSLRLSCAASGSTFGYYAMGWYRQAPGKERELVASITWGGGSTYYADSVKGRFTISRDNAKNTVYLQMNSLKPEDTAVYYCAATILGGTWGYGSYTYYYWGHGTQVTVSS | low polyreactivity
8 | QVQLVESGGGLVQAGGSLRLSCAASGSTFGYYAMGWYRQAPGKERELVATINWSGGSTYYADSEKGRFTISRDNAKNTVYLQMISLKPEDTAVYYCAADPYLQYYWAYDYWGQGTQVTVSS | low polyreactivity
9 | QVQLVESGGGLVQAGGSLRLSCAASGSTFGYYAMGWYRQAPGKERELVATITIGGSTHYADSVKGRFTISRDNAKNTVYLQMNSLKPEDTAVYYCAKRYYTNRHSRAFGFWGQGSQVTVSS | high polyreactivity
10 | QVQLVESGGGLVQAGGSLRLSCAASGSTFGYYAMGWYRQAPGKERELVATITSSGDNTYADSVKGRFTISRDNAKNTVYLQMNSLKPEDTAVYYCNARYRKSSRPVYEPYERYYWGQGTQVTVSS | high polyreactivity
11 | QVQLVESGGGLVQAGGSLRLSCAASGSTFGYYAMGWYRQAPGNEREFVAAITYGDGNTYYADSVKGRFTISRDNAKNTVYLQMNRLKPEDTAVYYCAKYYWAPTGAHGGYGYWGQGTQVTVSS | low polyreactivity
12 | QVQLVESGGGLVQAGGSLRLSCAASGSTFGYYGMGWYRQAPGKERELVAAISTGGRTNYADSVKGRFTISRDNAKNTVYLQMNSLKPEDTAVYYCAADFLSAAYRPSWYRFDYWGQGTQVTVSS | low polyreactivity
13 | QVQLVESGGGLVQAGGSLRLSCAASGSTFGYYGMGWYRQAPGKERELVAAISTGGRTNYADSVKGRFTISRDNAKNTVYLQMNSLKPEDTAVYYCAADFLSPAYRPSWYRFDYWGQGTQVTVSS | low polyreactivity
14 | QVQLVESGGGLVQAGGSLRLSCAASGSTFGYYTMGWYRQAPGKERELVAAITGGGTTYYADSVKGRFTISRDNAKNTVYLQMNSLKPEDYAVYYCAAQARYYWGTTYEYWGQGTQVTVSS | high polyreactivity
15 | QVQLVESGGGLVQAGGSLRLSCAASGSTFGYYTMGWYRQAPGKERELVAAITKSGGGTYYADSVKGRFTISRDNAKNTVYLQMNSLKPEDTAVYYCNALYDYYDPYGSWGQGTQVTVSS | high polyreactivity
16 | QVQLVESGGGLVQAGGSLRLSCAASGSTFHAYAMGWYRQAPGKEREMVAAISWRGGSTYYADSVKGRFTISRDNAKNTVYLQMNSLKPEDTAVYYCAASVQGLFGTSGLEGVDYWGQGTQVTVSS | high polyreactivity
17 | QVQLVESGGGLVQAGGSLRLSCAASGSTFHDKAMGWYRQAPGKERELVAAITKTAGSTYYADSVKGRFTISRDNAKNTVYLQMNSMKPEDTAVYYCNAKTYHSRRKVLRFDYWGQGTQVTVSS | low polyreactivity
18 | QVQLVESGGGLVQAGGSLRLSCAASGSTFHHYAMGWYRQAPGKERELVAAITTSGGRTYYADSVKGRFTISRDNAKNTVYLQMNSLKPEDTAVYYCAADRFFYRGGYYYWGQGTQVTVSS | high polyreactivity
19 | QVQLVESGGGLVQAGGSLRLSCAASGSTFHLYTMGWSRQAPGKERELVAGISRRGGTTYYADSVKGRFTISRDNAKNTVYLQMNSLKPEDTAVYYCAAVYRTYGIGPNNYWGQGTQVTVSS | high polyreactivity
20 | QVQLVESGGGLVQAGGSLRLSCAASGSTFHNYAMGCYRQAPGKERELVAGISVRGGGTYYADSVKGRFTISRDNAKNTVYVQMNSLKPEDTAVYYCNARSWYYVWRKGYRHGDYWGQGTQVTVSS | high polyreactivity
21 | QVQLVESGGGLVQAGGSLRLSCAASGSTFHPNAMGWYIQAPGKERQLVAAISRGGSTNYADSVKGRFTISRDNAKNTVYLQMNSLKPEDTAVYYCAKDFFGISSDPVDMDYWGQGTQVTVSS | low polyreactivity
22 | QVQLVESGGGLVQAGGSLRLSCAASGSTFHPNTMGWYRQAPGKERELGARISSGGSTNYADSVKGRFTISRDNAKNTVYLQMNSLKPEDTAVYYCAARTAFSGARGRGGYWGQGTQVTVSS | high polyreactivity
23 | QVQLVESGGGLVQAGGSLRLSCAASGSTFHSYAMGWYRQAPGKERELVAAISSSGGSTYYADSVKGRFTISRDNAKNTVYLQMNSLKPEDTAVYYCAADWRTKGYDSLGQGTQVTVSS | high polyreactivity
24 | QVQLVESGGGLVQAGGSLRLSCAASGSTFHTFAMGWYRPAPGKERELVAAINRRTGGTYYADSVKGRFTISRDNAKNTVDLQMNSLKPEDTAVFYCATDWFSYRGGIFDSWGQGTQVTVSS | low polyreactivity
25 | QVQLVESGGGLVQAGGSLRLSCAASGSTFHTYAMGWYRQAPGKERELVASISYGVTTYYADSVKGRFTISRDNAKNTVYLQMNSLKPEDTAVYYCAREGYKWVYLSYGYWGQGTQVTVSS | low polyreactivity
26 | QVQLVESGGGLVQAGGSLRLSCAASGSTFHWYTMGWYRPAPGKESELVAAITSGTSTYYADSVKGRFTISRDNSKITVYLQMNSLKPEDTAVYYCNTEGVWSVYGLYDYWGQGTQVTVSS | low polyreactivity
27 | QVQLVESGGGLVQAGGSLRLSCAASGSTFHYYAMGWYRQAPGKERELVAAINSGARTYYADSVKGRFTISRDNAKNTVYLQMNSLKPEDTAVYYCNKAFQWSGGQVSYDFWGQGTQVTVSS | low polyreactivity
28 | QVQLVESGGGLVQAGGSLRLSCAASGSTFHYYAMGWYRQAPGKERELVAAISYRGSTYYADSVKGRFTISRDNAKNTVYLQMNSLKPEDTAVYYCAVVSSRGRRIYGYWGQGTQVTVSS | high polyreactivity
29 | QVQLVESGGGLVQAGGSLRLSCAASGSTFHYYAMGWYRQAPGKERELVAAISYSGGRTYYADSVKGRFTISRDNAKNTVYLQMNSLKPEDTAVYYCAARRSRTGRDESWGQGTQVTVSS | high polyreactivity
30 | QVQLVESGGGLVQAGGSLRLSCAASGSTFIANAMGWYRKAPGKERELVAAISQSGDSTYYADSVKGRFTISRENAKNTVYLQMNSMKPEDTAVYYCAAEDVDGYEYWGQGTQVTVSS | high polyreactivity
